Data on 2 molecules can be found in patent publication US20240425546A1 (NANTONG YICHEN BIOPHARMA, published 2024).

Assay [1] deals with T1, WT hIL-1β (human, UniProt P01584 117-269). In words: cell-based or functional assay.
In assay [2] the target is T1, WT hIL-1β. As to the kind of experiment: competitive ELISA on coated WT hIL-1β; canakinumab diluted in series, competitor E64AK-F4-mFc (100 nM).
For the next assay, the target named is T2, E64AK-F4-mFc (mouse, UniProt P01863 123-330 = IgG part).
T2 construct: scFv fused to the Fc of mouse IgG2a by a linker; also called E64AK-F4-mFc fusion antibody
In words: ELISA, antigen coated. In general terms: An ELISA detects its analyte on a solid surface through an enzyme-linked reagent.

In general, IC50 refers to the concentration at which inhibition is half-maximal. High values mean weaker potency in that assay, low ones greater potency in that assay.

T2 sequence (VL, as listed by the source limits assumed, chain 1 of 3): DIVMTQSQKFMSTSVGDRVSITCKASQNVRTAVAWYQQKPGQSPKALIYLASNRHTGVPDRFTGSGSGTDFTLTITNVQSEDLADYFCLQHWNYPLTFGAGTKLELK
T2 sequence (VH, as listed by the source limits assumed, chain 2 of 3): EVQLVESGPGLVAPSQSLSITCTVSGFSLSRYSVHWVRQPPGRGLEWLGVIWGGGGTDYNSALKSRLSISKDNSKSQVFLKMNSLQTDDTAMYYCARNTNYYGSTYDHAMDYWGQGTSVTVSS
T2 sequence (P01863 other isoform, or with tags, fused parts or gaps limits assumed, chain 3 of 3): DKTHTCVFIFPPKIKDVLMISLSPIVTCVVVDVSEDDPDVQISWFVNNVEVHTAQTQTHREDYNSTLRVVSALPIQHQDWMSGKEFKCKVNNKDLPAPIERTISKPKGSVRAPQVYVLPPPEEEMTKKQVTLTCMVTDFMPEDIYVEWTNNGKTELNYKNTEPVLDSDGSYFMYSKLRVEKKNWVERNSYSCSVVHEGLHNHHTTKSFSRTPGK

B1: Canakinumab (antibody, V domains shown)
VH: QVQLVESGGGVVQPGRSLRLSCAASGFTFSVYGMNWVRQAPGKGLEWVAIIWYDGDNQYYADSVKGRFTISRDNSKNTLYLQMNGLRAEDTAVYYCARDLRTGPFDYWGQGTLVTVSS
VL: EIVLTQSPDFQSVTPKEKVTITCRASQSIGSSLHWYQQKPDQSPKLLIKYASQSFSGVPSRFSGSGSGTDFTLTINSLEAEDAAAYYCHQSSSLPFTFGPGTKVDIKR
For B1, the “inhibition of IL-1β-induced activation of HEK-Blue IL-1R cells (SEAP), IC50” value with WT hIL-1β [1] was found to be 4.7 nM. Besides, the half-inhibitory concentration (IC50) with WT hIL-1β [2] came to 2.1 nM.

B2: hIL-1β63-66A (ligand)
chain: APVRSLNCTLRDSQQKSLVMSGPYELKALHLQGQDMEQQVVFSMSFVQGEESNDKIPVALGLAAAALYLSCVLKDDKPTLQLESVDPKNYPKKKMEKRFVFNKIEINNKLEFESAQFPNWYISTSQAENMPVFLGGTKGGQDITDFTMQFVSS
notes: also called IL-1β mutant containing four alanine mutations; hIL-1βE63-66A
Regarding B2, in the assay with E64AK-F4-mFc, the binding result is “no binding”.
